Results from US20020143164.

What was measured:
[1] = target: Endogenous Ras of HEK-293T cells

Sequence of GST-Ras [GST: P08515] (P08515 whole entry, looked up): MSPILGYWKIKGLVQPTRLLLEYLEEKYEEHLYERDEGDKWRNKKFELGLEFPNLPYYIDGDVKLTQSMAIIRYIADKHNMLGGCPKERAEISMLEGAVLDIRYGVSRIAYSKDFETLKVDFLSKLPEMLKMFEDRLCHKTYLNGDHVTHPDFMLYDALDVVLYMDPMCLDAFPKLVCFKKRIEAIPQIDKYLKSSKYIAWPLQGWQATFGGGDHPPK

B1: Flag-tagged full-length GRF4 (protein)
chain: MKPLAIPANHGVMGQQEKHSLPADFTKLHLTDSLHPQVTHVSSSHSGCSITSDSGSSSLSDIYQATESEAGDMDLSGLPETAVDSEDDDDEEDIERASDPLMSRDIVRDCLEKDPIDRTDDDIEQLLEFMHQLPAFANMTMSVRRELCAVMVFAVVERAGTIVLNDGEELDSWSVILNGSVEVTYPDGKAEILCMGNSFGVSPTMDKEYMKGVMRTKVDDCQFVCIAQQDYCRILNQVEKNMQKVEEEGEIVMVKEHRELDRTGTRKGHIVIKGTSERLTMHLVEEHSVVDPTFIEDFLLTYRTFLSSPMEVGKKLLEWFNDPSLRDKVTRVVLLWVNNHFNDFEGDPAMTRFLEEFENNLEREKMGGHLRLLNIACAAKAKRRLMTLTKPSREAPLPFILLGGSEKGFGIFVDSVDSGSKATEAGLKRGDQILEVNGQNFENIQLSKAMEILRNNTHLSITVKTNLFVFKELLTRLSEEKRNGAPHLPKIGDIKKASRYSIPDLAVDVEQVIGLEKVNKKSKANTVGGRNKLKKILDKTRISILPQKPYNDIGIGQSQDDSIVGLRQTKHIPTALPVSGTLSSSNPDLLQSHHRILDFSATPDLPDQVLRVFKADQQSRYIMISKDTTAKEVVIQAIREFAVTATPDQYSLCEVSVTPEGVIKQRRLPDQLSKLADRIQLSGRYYLKNNMETETLCSDEDAQELLRESQISLLQLSTVEVATQLSMRNFELFRNIEPTEYIDDLFKLRSKTSCANLKRFEEVINQETFWVASEILRETNQLKRMKIIKHFIKIALHCRECKNFNSMFAIISGLNLAPVARLRTTWEKLPNKYEKLFQDLQDLFDPSRNMAKYRNVLNSQNLQPPIIPLFPVIKKDLTFLHEGNDSKVDGLVNFEKLRMIAKEIRHVGRMASVNMDPALMFRTRKKKWRSLGSLSQGSTNATVLDVAQTGGHKKRVRRSSFLNAKKLYEDAQMARKVKQYLSNLELEMDEESLQTLSLQCEPATNTLPKNPGDKKPVKSETSPVAPRAGSQQKAQSLPQPQQQPPPAHKINQGLQVPAVSLYPSRKKVPVKDLPPFGINSPQALKKILSLSEEGSLERHKKQAEDTISNASSQLSSPPTSPQSSPRKGYTLAPSGTVDNFSDSGHSEISSRSSIVSNSSFDSVPVSLHDERRQRHSVSIVETNLGMGRMERRTMIEPDQYSLGSYAPMSEGRGLYATATVISSPSTEELSQDQGDRASLDAADSGRGSWTSCSSGSHDNIQTIQHQRSWETLPFGHTHFDYSGDPAGLWASSSHMDQIMFSDHSTKYNRQNQSRESLEQAQSRASWASSTGYWGEDSEGDTGTIKRRGGKDVSIEAESSSLTSVTTEETKPVPMPAHIAVASSTTKGLIARKEGRYREPPPTPPGYIGIPITDFPEGHSHPARKPPDYNVALQRSRMVARSSDTAGPSSVQQPHGHPTSSRPVNKPQWHKPNESDPRLAPYQSQGFSTEEDEDEQVSAV
fold Ras activation in vitro (bound 32P-GTP, 30 min, against Ras without GRFs set to 1) (GST-Ras [GST: P08515]): ˜2.9 fold activation in 30 min.
active Ras (Ras-GTP) precipitated with GST-Raf1-RBD from HEK-293T lysates [1]: heterologous expression of GRF4 in HEK-293T cells led to a weak activation of endogenous Ras, which was greatly enhanced following stimulation of cells with ... 8-Br-cAMP

B2: Isolated CDC25 domain of GRF4 (protein)
chain: SLLQLSTVEVATQLSMRNFELFRNIEPTEYIDDLFKLRSKTSCANLKRFEEVINQETFWVASEILRETNQLKRMKIIKHFIKIALHCRECKNFNSMFAIISGLNLAPVARLRTTWEKLPNKYEKLFQDLQDLFDPSRNMAKYRNVLNSQNLQPPIIPLFPVIKKDLTFLHEGNDSKVDGLVNFEKLRMIAKEIRHVGRMASVNMDPALMFRTRKKKWRSLGSLSQGSTNATVLDVAQTGGHKKRVRRSSFLNAKKLYEDAQMARKVKQYLSNLELEMDEESLQTLSLQCEPATNT
Ras activation in vitro (GEF assay) (GST-Ras [GST: P08515]): we were unable to demonstrate significant activation of Ras by the isolated CDC25 domain of GRF4
